Reference: the domain aggregation screens of Martell et al. (2025)

Assay: soluble fraction after stress (log2 fold change); higher = more stays soluble; pooled small domains, quantitative proteomics
Conditions: stress: 50 degC
Summary of the method: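 Pooled custom libraries of small protein domains were each held under stress at 50°C. The read-out, high-throughput quantitative proteomics, tracked how much of each protein stayed soluble. This is reported as a base-two log fold change used to indicate aggregation propensity. Higher values mean more protein remains in solution.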

Going from “HMEEQKYEYHLGDVVYLGVDKYEILGITNNIVTLYDPEFPLLNKQLDFDEFEKRVKDNYANEHLKVT” to “HMEERDMKGSISDLVERYADQLTDEQLEEIVLGIKNGLLEEDVKSYFFLPAEDMRRIRTALEQVR”, the “soluble fraction (log2)” value rises from -0.429 to 0.00866.

“HMEESEMIAFATVAHRIVGKPVEAVMRSYRNRDNIPADIAAIVSSKFTFSVTMAEASYRNPKKSYQVNSII” and “HMEETLLLRESVRSALAMLAPTLRITLEMYVYRQLSPTEIALRSGVSISMVRRRLGYGLYKLRTQLIDA” are within 0.2 log units of each other in “soluble fraction (log2)” value: -0.00943 for the first, -0.138 for the second.

Going from “HMEFEIGQEDSKKSVKQFLYNTLRLSHGQVTALKRQERGILLNGERVFVTALLQEGDRLSLLLE” to “HMEFFIIDHNGQQAGPFSFDQLVQKGISPETLVWKQGMADWNPAWKVEELKAVLEAVEANQSNQKAQ”, the “soluble fraction (log2)” value rises from -0.342 to 0.462.

Going from “HMEFGEVLAQLRQKRHISQAELGRAIFVSGGTISNYEKGVHFPDVEKLLLLADYFNVTTDYLLGRT” to “HMEFNQAVQDVNELSMQYAKSDVLWPEFEPKVLAFAKNELSQMPPNQWKFALQTFYNGLKQAA”, the “soluble fraction (log2)” value rises from -2.04 to -0.352.

“HMEFPLSPHQYSVLRLMAQGLSNKQIAERLFLSENTVKGYVQEVLRRLGARNRLEAVMIANRRGWL” and “HMEFPYISGVDVGTISNKEFARFETTKASDIVIALDKSGIPFSARFGDSEIVLTYDGSYKEEVEEIIAKV” are within 0.2 log units of each other in “soluble fraction (log2)” value: -0.112 for the first, 0.0138 for the second.

First: HMEFSYMDQGLERYRAFLETHGHGNVPESYHELKLVNFVAHIRKLYRMNLLSEERRRALDEAGFVF
Second: HMEFVEERRNRMLDYIGENKRADVPELARHFDVTEVTIRRDLLILEQDGKLIRTHGGAMINR
The “soluble fraction (log2)” value of the first is lower: -2.17 for the first, -0.433 for the second.

“HMEGDKEIPNVIGKSINDAKKILEQAGLKLGEVKKVNDSSVAKNVVLSTNPNAGTKVSAGDAVSITVAEG” and “HMEGGLIMDRIEKGLQSGVMPDLRGLNLKDALYLLESYVQVQVIGSGGVIKQSIKTGDKFIMGSVIKLEL” are within 0.2 log units of each other in “soluble fraction (log2)” value: 0.0251 for the first, -0.0813 for the second.

Going from “HMEGLATRLRFLRQARGLSYHALARLSGVTHTALHQIEAGKNIPGLDTAEKIAMALDVDPRWFAYGRGDPS” to “HMEGPALKVWKARYLRAAILEQLLSDRWDDRGGQPIRVVVNEPTNSLLIRIPRHLWPEAEKLLQELDQR”, the “soluble fraction (log2)” value rises from -1.31 to -1.02.

First: HMEGTEILVNIRKGMTKEEIASLLVSKGLVEDKNTFLVQTALYTSDRYPIQPGSYTLNTAQTPEEMLAVMT
Second: HMEGVNLTVQEAKQMAAIIAPLLKQGQSPYQIVTNHPELGISEKTLYNYIENDVFHEIAGITVMDL
The “soluble fraction (log2)” value of the first is higher: 0.0128 for the first, -0.365 for the second.

“HMEHIVNELDRKVIDYLQSHYDAKLNDIAQGIGVSKATATKSIRKLVQTGIVHVVGSSGTGTSYNLTE” and “HMEHVVFEVTESGELENNTAVKHVLNSFNNKSLNLAIDDFGTGYSNLRYIRDMMFGIIKIDRLFIKDINES” are within 0.2 log units of each other in “soluble fraction (log2)” value: -0.152 for the first, -0.018 for the second.

“HMEIDFDKINSIFNDANKLYEEGDYFEANNLYKNIVSSNIISKDLYYNLGLSYAKIGSNGYAILWYERALN” and “HMEIEEIDYGTFLQMVEDGVVEKIELTDTQIFLTSTVDNDDKVYTTGVMPDQDLTNRLIEAGVVNFGKVV” are within 0.2 log units of each other in “soluble fraction (log2)” value: -0.189 for the first, -0.21 for the second.

First: HMEIFSIEPDSYLGSGEEIASYYREGVTVIVNMAKLSDAESLRMVDFMSGLKLALLGNIKRITKHVYLLTP
Second: HMEIITIVSDINGKRIDAWLSEKLENYSRSFIQKLIQNENVKVNNNIVKANYKLKNGDAVAVSIPEPV
The “soluble fraction (log2)” value of the first is lower: -0.0901 for the first, at least 0.62 for the second.

Going from “HMEILNYVVSDGQSGIRIDRYLSDSNEDLSRSYIQKLLKEQKVTVQGTFVKANYKVQAGDVITVEVPDMA” to “HMEILPAYRDIKKEALLGNINAEFKYVNLLLEHNYIEQAFNIIEDMKTRVDDNPEFEELKSRVADAYLMY”, the “soluble fraction (log2)” value falls from -0.946 to -1.38.

“HMEILTLEELKRLMAKAKLKQNQISGHAGVSKQQISMILAGKRNITKDVSDNLKANLAEYFP” and “HMEILVSTRRHEIASLLSRKKRVSFFELFPEKTKEYVVATFLAILEMAKAREVNITQEDTFDEIIVEEA” are within 0.2 log units of each other in “soluble fraction (log2)” value: -0.462 for the first, -0.43 for the second.

“HMEIPTPAELREKRIRMGLKQADVARMAGISQSMVARIESGSVDPRVSTLAKIVEVLQAAER” and “HMEISLEAKMAEVREQVRGLAGINFRTLLEMQASRSNIIVTFLAILELMKIGAIQIRQEEIFGEIIIDSRD” are within 0.2 log units of each other in “soluble fraction (log2)” value: -0.175 for the first, -0.222 for the second.

“HMEISPGDVFKQLPGIGDDLSRRVVESLGIQSLEELESAAHDGRLEQVEGFGERRVQMVRAVLTGMLS” and “HMEITTEDIAAQVASWIVRLSEDLTSTDRAALQIEFEQWQQTDSRRAEIAHKMLSLIGQAEQLRKT” are within 0.2 log units of each other in “soluble fraction (log2)” value: -0.0423 for the first, -0.207 for the second.

First: HMEKAISSLTLEEAKKRLEMVRSEKDASLQIYKETGSETARVTAENYGKEENSLLLHISEMSNIV
Second: HMEKFTGELSQEEKNVLDALSHEEMHVDIIIKLTKLETSAVSSTLSLLEIKGLIKNIGGQNYIK
The “soluble fraction (log2)” value of the first is lower: -0.469 for the first, 0.486 for the second.

First: HMEKIIFEISEEGKRLDLYIAERTELTRTRIQQLIKDGNINVNNKKSKPSYKVEKNDFIEMIIPDE
Second: HMEKINLIIEEDNNLRLDKVIAMQLQELSRTQIQDMINQGLVLVNQKKEKASYKTKLNDEIEITILD
The “soluble fraction (log2)” value of the first is higher: -0.56 for the first, -1.37 for the second.

Compared with “HMEKKDTYTVKNGDSLWGIARTELGDGGRFREIYTLNADTIEAEAKKRGRSSSSEGHWIYPGSVLRLP”, “HMEKKGTVVIATVKGDIHDIGKNIVKVLLENYGFDVIDLGKDVPPEAVVEAVQQSGARLVGLSALM” is lower in “soluble fraction (log2)” value: 0.0469 for the first, -0.594 for the second.

First: HMEKKSKLVLAVLQGSDSDNTIRNLNERGFMVTVLSSTGGFLKKKSTTVMIGVEEDRLEEALDVLQKYAG
Second: HMEKKTILIPPVITVRALAEISQIPVNRLLQELIKNGVFTSINEKIDFDTAVIIGADLNLDIQLL
The “soluble fraction (log2)” value of the first is higher: -0.295 for the first, -0.95 for the second.

First: HMEKLPRYILPGVPKVKSINISSALDGLVQDYSREFNISQKDIFQIALVEFFKKYGYHNAVKAVL
Second: HMEKLSMLKIKELFRLAIEMNLSHRQIAQSLNVSHTVVNRYLKRFKKSNLSYETLLKLGDKEIISALYEH
The “soluble fraction (log2)” value of the first is higher: -0.314 for the first, -2.29 for the second.

First: HMEKPAQDVLASHREWMGEMIKAEHMTAKQVWRLLRERADIGVSYPTVKRYLRAHFQFGGPS
Second: HMEKRLDYTFGLNKEQLLYLTKSIKDGDFYNVSFIDGTEKKLNRVGSTKEVHKYVNFLMTNDGIVKK
The “soluble fraction (log2)” value of the first is lower: -1.28 for the first, 0.0518 for the second.

“HMEKSLKELAQGVGQKVLTSGRPYHFDPMSAMERRVVHMTLMEMDGLRTESEGEGRFRHVVVFPA” and “HMEKTEQMQVILDYIARYGEINNEKVQEILGVKRTRAYTILKQMVENGFVTTNGRGEEKKYYSIR” are within 0.2 log units of each other in “soluble fraction (log2)” value: -0.184 for the first, -0.336 for the second.

Going from “HMEKTIQIYDNIIIKDFAEKMEVSPSQVITKLIGLGVMANLNQPIDINSAVIVGKEFGFNVESM” to “HMEKVLPFEFERKFKTNHTAWDFFSNQAPPSYRKTVIHWILSAKQEITRISRLEKLIAASEQQKRI”, the “soluble fraction (log2)” value rises from -0.674 to -0.319.

Compared with “HMEKYIVNQEEQGKRLDIYVVNKSSELTRTAVQRLIEQEHILVNGRKQKASYKVLEGDIITIERV”, “HMEKYTDDLEIAAEIARLETLMEGNGRVLIRPSGTEPLVRVMIEGNDIEQITKLAEDLAALLNKRF” is lower in “soluble fraction (log2)” value: 0.573 for the first, -0.747 for the second.

“HMELDFNSVYRQLNHEQKQAYQSIKSVLEQKISGSELDKKLKQAQQAFVAKFKENPNFEVPK” and “HMELDIGKKAIVIEKIDPEAGTGRVRIEGVDWGAKTADSSVIEKGETVVVKAKGAAFVTVAK” are within 0.2 log units of each other in “soluble fraction (log2)” value: 0.31 for the first, 0.18 for the second.

Going from “HMELEAFPNPTDMFLSFTTKEKTPLAIYDINGKQVLYVEQITSSSKINVSKLSEGVYFAKTNQGTVKWVK” to “HMELEQLKSQLTGFLKANREQIFTAQNLADGLRMTDSQGYKQVVNALNASVRDGDVIDIKNGYQYNKN”, the “soluble fraction (log2)” value rises from -1.67 to 0.0729.

Compared with “HMELEWENYSLAGEIKTTVMLYQNRRNGLPEEAKQKADALMKQLKQAVIENDAQKVEKIDDALTALLFE”, “HMELGYTPNNLRSVRAKYGLTQKQVAEITGLKTWHPVNRWEAPVEAAYHADMPHTKWLKLLDELSSR” is lower in “soluble fraction (log2)” value: -0.15 for the first, -0.993 for the second.

“HMELKYIDYDEALVVYAKTVTASGGGLSGVKDEGGIRKVLDFVQNDLYYPTFVDKLTYLVFGL” and “HMELLPAERRQQLVDWFKSNQAGTSQDLARMFGISVSTIRRDLDLLASEGLVKRTHGGAVSIR” are within 0.2 log units of each other in “soluble fraction (log2)” value: 0.103 for the first, 0.0027 for the second.

Compared with “HMELLPFEFARANRVLLRVNESDLVVSPDANHSAVTEILRLNNNIETIKSVDAEAFDKILSSIYSG”, “HMELLSVPSRLGTFFLGGEAGHIIRLYLPGDPTPRIAEHETPVLSEARRQLLEYLAGRRTAFSFPL” is higher in “soluble fraction (log2)” value: -0.765 for the first, -0.139 for the second.

“HMELNEIEFENLKESIIIHLEKESLSPHELVKHIQTIHPDKVTAVIQWMLENGFIKTDAGGQLTLVSK” and “HMELNELTSRELMVAEQVARGASNREISEALSISERTVKAHLSAAFEKLGVRDRVQLALAMNNIPT” are within 0.2 log units of each other in “soluble fraction (log2)” value: 0.135 for the first, -0.0086 for the second.

“HMELNKNDLKIIKNISHIYPYFTPVKILQLILSKKFKTIDYNKILKSTSILTTDRSHLYYILNN” and “HMELPSDEHLDDISHLARIGHKKGLQEKIIQLEQQGLASAEFIQQLKTLTNNFQFEKIIQWVDSEL” are within 0.2 log units of each other in “soluble fraction (log2)” value: 0.0788 for the first, -0.0426 for the second.

Compared with “HMELRIREILESKDIKVSSLAETVGITRANMSNIVNGKSTPSLETLEKIANALGVDITELFA”, “HMELSAEGWVDGTGVRMRASASTDSEVVRVTEDGESLDITGVSGTWYRVTAGGVSGYIRSDYVSLEEP” is lower in “soluble fraction (log2)” value: 0.116 for the first, -0.287 for the second.

Going from “HMELSAQEIGRRLRIARENADIRQDDAAQVIGMSRPTLVSIEKGVRRVRIQEIQMLARHYGVSVNALLR” to “HMELSVTDRTRQIRHILKEKGRVEFTSLFEELTKPYVIVTFLSVLEMSKNNELMITQDKTFGSITLEMKG”, the “soluble fraction (log2)” value rises from -2.14 to -0.569.

For “HMELVIGESLAVELLRPGKEDGQALGYLPDGSMVVVNNGRAFVGKRVTAEIIGVIRSAGGKMVFSNLLGE”, the “soluble fraction (log2)” value was -2.68.
